Values quoted from earlier work in PMC10426772.
Blank lines part the entries; values can stand above or below the substance they belong to.

Tests used:
[1] = molecular target: insulin receptor (HIR, brain capillary) (Homo sapiens) (UniProt P06213); experiment: radio-receptor assay with [125I]-insulin
[2] = molecular target: leptin receptor (Homo sapiens) (UniProt P48357); experiment: radio-receptor assay
[3] = molecular target: IGF receptor (IGF1R, brain capillary) (Homo sapiens) (UniProt P08069); experiment: radio-receptor assay with [125I]-IGF2
[4] = molecular target: IGF receptor (human BBB) (Homo sapiens) (UniProt P08069); experiment: radio-receptor assay

insulin, sequence (P01308 90-110): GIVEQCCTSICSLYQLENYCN
leptin receptor (Homo sapiens), sequence (P48357 22-839): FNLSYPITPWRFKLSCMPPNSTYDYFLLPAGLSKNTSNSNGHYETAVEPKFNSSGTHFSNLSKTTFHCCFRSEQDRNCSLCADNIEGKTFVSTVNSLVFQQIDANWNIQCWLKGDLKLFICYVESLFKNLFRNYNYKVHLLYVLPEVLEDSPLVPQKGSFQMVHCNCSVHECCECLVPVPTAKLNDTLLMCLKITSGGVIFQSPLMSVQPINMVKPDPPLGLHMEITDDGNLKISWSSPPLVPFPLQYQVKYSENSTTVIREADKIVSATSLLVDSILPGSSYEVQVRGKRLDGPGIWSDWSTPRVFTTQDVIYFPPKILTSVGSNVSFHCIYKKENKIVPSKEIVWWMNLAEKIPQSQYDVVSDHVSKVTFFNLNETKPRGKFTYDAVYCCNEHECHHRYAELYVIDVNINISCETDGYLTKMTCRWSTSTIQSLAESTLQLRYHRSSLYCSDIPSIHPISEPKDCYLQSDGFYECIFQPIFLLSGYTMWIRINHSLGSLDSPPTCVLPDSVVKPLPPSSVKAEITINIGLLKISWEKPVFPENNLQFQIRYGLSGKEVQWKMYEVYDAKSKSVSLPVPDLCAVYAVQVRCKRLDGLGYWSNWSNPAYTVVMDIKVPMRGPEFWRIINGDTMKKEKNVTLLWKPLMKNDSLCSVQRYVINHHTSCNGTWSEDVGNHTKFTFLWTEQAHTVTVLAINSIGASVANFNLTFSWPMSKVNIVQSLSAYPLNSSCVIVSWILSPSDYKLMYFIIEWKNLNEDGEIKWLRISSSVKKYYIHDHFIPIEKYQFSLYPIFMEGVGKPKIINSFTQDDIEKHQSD
leptin, sequence (P41159 22-167): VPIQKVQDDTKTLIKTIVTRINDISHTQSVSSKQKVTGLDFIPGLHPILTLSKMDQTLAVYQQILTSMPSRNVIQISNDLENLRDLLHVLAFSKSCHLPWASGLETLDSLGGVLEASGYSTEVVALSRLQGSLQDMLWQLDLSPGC

Kd [1]: 1.2 nM
Substance: insulin (from UniProt P01308)

Kd [2]: 5.1 nM
Substance: leptin (from UniProt P41159)

Kd [3]: 1.1 nM | Kd [4]: 1.1 nM
Substance: IGF2 (from UniProt P01344)
